Several values for one entry are separate records, joined by “and”; a condition that tells them apart may be missing. Identical values can stand only once.
Molecular target: Ebola virus Full length GP (Ebola virus (strain not stated))
Test: ELISA on Full length GP

Question: Which EC50 does the source give for 13F6 (antibody) here?
Answer: 0.004 µg/mL and 0.0027 nM
